Patent US20040191271A1 (Pfizer, published 2004)

Molecular target: the molecule itself
Assay: size exclusion chromatography (Superdex 200), self-association of identical subunits

B1: Streptococcus pneumoniae undecaprenyl pyrophosphate synthase (enzyme)
chain: AVEVEVPTQVPAHIGIIMDGNGRWAKKRMQPRVFGHKAGMEALQTVTKAANKLGVKVITVYAFSTENWTRPDQEVKFIMNLPVEFYDNYVPELHANNVKIQMIGETDRLPKQTFEALTKAEELTKNNTGLILNFALNYGGRAEITQALKLISQDVLDAKINPGDITEELIGNYLFTQHLPKDLRDPDLIIRTSGELRLSNFLPWQGAYSELYFTDTLWPDFDEAALQEAILAYNRRHRRFGGV
notes: Homodimer of two identical subunits; Thrombin removed the tag before size exclusion and crystallization; also called UPS; UppS
- binding result: binds
